The assay concerns the target SARS-CoV-2 S-RBD with Avi-tag and deca-His tag (residues 330-531) (SARS-CoV-2, UniProt P0DTC2, biotin on the Avi tag (BirA) where immobilised on streptavidin sensors or used in ELISA and FSEC).

Positions count from the first letter of the chain named.

B1: SR52 (VHH)
VHH: QVQLVESGGGLVQAGGSLRLSCAASGFPVNNMEMTWYRQAPGKEREWVAAIASDGSYTEYADSVKGRFTISRDNAKNTVYLQMNSLKPEDTAVYYCYVWVGKSYIGQGTQVTVS
For B1, the binding result is “binds”.

B2: MR1 (VHH)
VHH: QVQLVESGGGLVQVGGSLRLSCAASGFPVYHSIMHWYRQAPGKEREWVAAIYSSGAHTYYADSVKGRFTISRDNAKNTVYLQMNSLKPEDTAVYYCNVKDGGNWDHTYDYWGQGTQVTVS
Consider B2, for which the binding result is “binds”.

B3: SR54 (VHH)
VHH: QVQLVESGGGLVQAGGSLRLSCAASGFPVSQARMHWYRQAPGKEREWVAAIGSSGDFTRYADSVKGRFTISRDNAKNTVYLQMNSLKPEDTAVYYCEVQVGQWYEGQGTQVTVS
On to B3, for which the binding result is “binds”.

B4: SR56 (VHH)
VHH: QVQLVESGGGLVQAGGSLSLSCAASGFPVEHYGMYWYRQAPGKEREWVAAIRSDGQWTHYADSVKGRFTISRDNAKNTVYLQMNSLKPEDTAVYYCTVGVGSNYYGQGTQVTVS
Take B4: the binding result is “binds”.

B5: SR46 (VHH)
VHH: QVQLVESGGGLVQAGGSLRLSCAASGFPVFTENMHWYRQAPGKEREWVAAIYSYGVWTLYADSVKGRFTISRDNAKNTVYLQMNSLKPEDTAVYYCVVQVGEWYEGQGTQVTVS
B5: the binding result is listed as “binds”.

B6: SR48 (VHH)
VHH: B3 VHH with S30N, A32N, R33N, G52Y, R59L, Q102F, E105T
Regarding B6, the binding result is “binds”.

B7: SR53 (VHH)
VHH: B5 VHH with F30Y, T31S, E32Q, N33H, Y54N, V56T, W57Y, V97E, Q99N
Turning to B7, the binding result is recorded as “binds”.

B8: SR58 (VHH)
VHH: B5 VHH with F30K, T31Q, Y54T, V56N, W57F, V97A, E102Q
Turning to B8, the binding result is “binds”.

B9: SR55 (VHH)
VHH: B5 VHH with F30D, E32T, Y54S, V56G, W57F, V97T, Q99W, E102D
For the molecule B9, the binding result was “binds”.

B10: SR62 (VHH)
VHH: B5 VHH with T31Q, Y54Q, V56S, W57Y, V97E, Q99N, E102Q, E105Y
Consider B10, for which the binding result is “binds”.

B11: SR59 (VHH)
VHH: QVQLVESGGGLVQAGGSLRLSCAASGFPVKTSRMYWYRQAPGKEREWVAAIISYGSVTFYADSVKGRFTISRDNAKNTVYLQMNSLKPEDTAVYYCYVYVGAQYWGQGTQVTVS
Take B11: the binding result is recorded as “binds”.

B12: SR43 (VHH)
VHH: QVQLVESGGGLVQAGGSLRLSCAASGFPVKKHEMEWYRQAPGKEREWVAAIQSKGYTTYYADSVKGRFTISRDNAKNTVYLQMNSLKPEDTAVYYCYVYVGESYIGQGTQVTVS
In the case of B12, the binding result is listed as “binds”.

B13: SR49 (VHH)
VHH: QVQLVESGGGLVQAGGSLRLSCAASGFPVFHAYMAWYRQAPGKEREWVAAIESDGSSTHYADSVKGRFTISRDNAKNTVYLQMNSLKPEDTSVYYCAVLVGFWYAGQGTQVTVS
Consider B13, for which the binding result is “binds”.

B14: MR5 (VHH)
VHH: QVQLVESGGGLVQAGGSLRLSCAASGFPVDAWEMAWYRQAPGKEREWVAAIRSFGRRTHYADSVKGRFTISRDNAKNTVYLQMNSLKPEDTAVYYCNVKDFGTHTQEYDYWGQGTQVTVS
Consider B14, for which the binding result is on record as “binds”.

B15: MR2 (VHH)
VHH: QVQLVESGGGLVQAGGSLRLSCAASGFPVYFSYMAWYRQAPGKEREWVAAINSEGDSTTYADSVKGRFTISRDNAKNTVYLQMNSLKPEDTAVYYCNVKDYGWYNSQYDYWGQGTQVTVS
As for B15, the binding result is on record as “binds”.

B16: SR45 (VHH)
VHH: QVQLVESGGGLVQAGGSLRLSCAASGFPVDNATMAWYRQAPGKEREWVAAIHSIGGYTTYADSVKGRFTISRDNAKNTVYLQMNSLKPEDTAVYYCVGVGKHYYGQGTQVTVS
With B16, the binding result is reported as “binds”.

B17: SR44 (VHH)
VHH: QVQLVESGGGLVQAGGSLRLSCAASGFPVGTAQMAWYRQAPGKEREWVAAITSYGEYTLYADSVKGRFTISRDNAKNTVYLQMNSLKPEDTAVYYCAVHVGFWYTGQGTQVTVS
Take B17: the binding result was “binds”.

B18: SR47 (VHH)
VHH: B5 VHH with F30K, N33T, V56T, W57Y, V97E
Turning to B18, the binding result is reported as “binds”.

B19: SR57 (VHH)
VHH: B13 VHH with F30E, H31Q, Y33E, E52V, D54Y, S56H, H59Y, S92A, L99F
In the case of B19, the binding result was “binds”.

B20: SR61 (VHH)
VHH: B13 VHH with F30D, H31I, Y33E, E52G, D54Q, S56M, S57T, S92A, L99H
For B20, the binding result is listed as “binds”.

B21: SR60 (VHH)
VHH: B17 VHH with G30E, T31H, T52Q, E56S, Y57T, L59Y, T105A
As for B21, the binding result is “binds”.

B22: SR50 (VHH)
VHH: QVQLVESGGGLVQAGGSLRLNCAASGFPVAQAVMAWYRQALGKEREWVAAMHSTGTYTAYADSVKGRFTISRDNAKNTVYLQMNSLKPEDTAVYYCAVHVGFWYAGQGTQVTVS
In the case of B22, the binding result is given as “binds”.

B23: MR7 (VHH)
VHH: QVQLVESGGGLVQAGGSLRLSCAASGFPVNSWMEWYRQAPGKEREWVAAITSYGYKTYYADSVKGRFTISRDNAKNTVYLQMNSLKPEDTAVYYCNVKDEGYFSDEYDYWGQGTQVTVS
As to B23, the binding result is listed as “binds”.

B24: SR51 (VHH)
VHH: QVQLVESGGGLVQAGGSLRLSCAASGFPVWESYMRWYRQAPGKEREWVAAIQSNGNNTWYADSVKGRFTISRDNAKNTVYLQMNSLKPEDTAVYYCVVYVGYEYHGQGTQVTVS
As for B24, the binding result was “binds”.

B25: MR6 (VHH)
VHH: QVQLVESGGGLVQAGGSLRLSCAASGFPVEDTWMEWYRQAPGKEREWVAAITSWGFKTYYADSVKGRFTISRDNAKNTVYLQMNSLKPEDTAVYYCNVKDEGDTSASYDYWGQGTQVTVS
As to B25, the binding result is on record as “binds”.

The values above are taken from paper PMC8324831, “A synthetic nanobody targeting RBD protects hamsters from SARS-CoV-2 infection” (Nature Communications, 2021).
